# Source: patent publication US7057015B1, “Hormone receptor functional dimers and methods of their use” (The Salk Institute for Biological Studies, priority 1999, dated 2006)
# T1: Drosophila melanogaster ecdysone receptor (monomeric) (Drosophila melanogaster, UniProt P34021 1-878)
# T1 sequence (looked up): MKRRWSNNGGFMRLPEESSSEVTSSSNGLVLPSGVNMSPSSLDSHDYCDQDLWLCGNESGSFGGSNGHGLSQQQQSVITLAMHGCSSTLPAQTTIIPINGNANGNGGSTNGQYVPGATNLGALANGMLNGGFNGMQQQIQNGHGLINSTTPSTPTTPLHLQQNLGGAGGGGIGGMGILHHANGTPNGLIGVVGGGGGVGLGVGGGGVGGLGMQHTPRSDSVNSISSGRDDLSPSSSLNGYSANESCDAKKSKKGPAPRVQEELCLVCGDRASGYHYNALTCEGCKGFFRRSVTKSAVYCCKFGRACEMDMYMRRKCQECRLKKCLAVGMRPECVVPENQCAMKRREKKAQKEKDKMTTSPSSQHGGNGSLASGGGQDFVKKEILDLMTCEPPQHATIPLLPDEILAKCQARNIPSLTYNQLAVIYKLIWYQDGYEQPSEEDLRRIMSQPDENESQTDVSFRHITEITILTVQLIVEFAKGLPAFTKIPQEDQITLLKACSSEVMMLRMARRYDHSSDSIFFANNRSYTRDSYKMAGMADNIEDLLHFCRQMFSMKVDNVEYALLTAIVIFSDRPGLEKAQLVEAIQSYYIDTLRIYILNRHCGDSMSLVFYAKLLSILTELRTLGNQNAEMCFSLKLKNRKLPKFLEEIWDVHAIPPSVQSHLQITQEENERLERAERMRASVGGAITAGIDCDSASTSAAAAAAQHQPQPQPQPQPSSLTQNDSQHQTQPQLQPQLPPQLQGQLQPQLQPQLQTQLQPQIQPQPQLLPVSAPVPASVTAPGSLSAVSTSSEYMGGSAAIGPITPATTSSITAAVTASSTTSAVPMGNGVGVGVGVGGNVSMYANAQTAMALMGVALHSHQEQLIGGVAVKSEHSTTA
# How the values were obtained:
# [1] = tested on: E0R (EcR-RXR fusion, 0 linker segments) (Drosophila melanogaster / Homo sapiens); test: EMSA; details: 1 uM muristerone A, 23 C
# [2] = tested on: E0U (EcR-Usp fusion, 0 linker segments) (Drosophila melanogaster); test: EMSA; details: nearly ligand-insensitive
# [3] = tested on: E5R (EcR-RXR fusion, 5 linker segments) (Drosophila melanogaster / Homo sapiens); test: EMSA; details: 1 uM muristerone A, 23 C
# [4] = tested on: E5U (EcR-Usp fusion, 5 linker segments) (Drosophila melanogaster); test: EMSA; details: nearly ligand-insensitive; not significantly above E0U
# [5] = tested on: R0E (RXR-EcR fusion, 0 linker segments) (Homo sapiens / Drosophila melanogaster); test: EMSA; details: 1 uM muristerone A, 23 C
# [6] = tested on: R5E (RXR-EcR fusion, 5 linker segments) (Homo sapiens / Drosophila melanogaster); test: EMSA; details: 1 uM muristerone A, 23 C
# [7] = tested on: U0E (Usp-EcR fusion, 0 linker segments) (Drosophila melanogaster); test: EMSA; details: barely detectable endodimer band; 1 uM muristerone A, 23 C
# [8] = tested on: mammals and other non-insect species; details: in vivo; cited from earlier work
# [9] = target: T1, Drosophila melanogaster ecdysone …; test: cell-based or functional assay
# [10] = tested on: EcRE probe; test: Gel mobility shift analysis of EcRE probe binding by FDs; details: 1 μM murA vs vehicle, extracts of transfected 293 cells
# Description: Preparation of the invention fusion protein FDs for gel shift analysis by transient transfection into 293 cells was as follows: 300 ng of individual receptor plasmids and 100 ng pCH110 internal control plasmid were cotransfected into 293 cells at 60% density in Costar 6-well plates. One well of each group was treated with 1 μM murA as ligand at the time of transfection. 40 hours later, extracts of transfected 293 cells were made by scraping the cells from a well into a low volume of phosphate buffered saline, pelleting the cells, resuspending them in 200 μl 5×gel shift buffer (Yao et al., supra 1992), and sonicating with a Kontes cell disrupter for three 10-sec. bursts at output level 30. The extracts were then centrifuged to clear the lysate and the protein was quantified. […]
# Comparative gel mobility shift analyses of FDs with control in vitro translated receptor complexes were performed using double stranded EcRE probes and labeled by Klenow fill using ^32P-dCTP and cold dGAT by standard methods. […] Band volumes were quantified using laser scanning densitometry.
# An autoradiogram of FDs and controls treated either with control vehicle or with 1 μM of murA as ligand was made with markers indicating endodimer FD or wild type receptor-binding complex band shifts. […] FIG. 2A is a graph that quantifies endodimer-sized band volumes obtained from the autoradiogram.
# [11] = tested on: E4-luc reporter plasmid in 293 cells; test: Transient transfection luciferase transactivation assay with E4-luc reporter; assay type: cell-based, human
# Description: For quantitative transactivation analysis, transfections were performed in triplicate in 24-well plates by calcium-phosphate co-precipitation with 100 ng of an individual receptor, the reporter plasmid E4-luc, and pCH110 (SV40-β-galactosidase) as an internal control. Briefly, the reporter plasmid, E4-luc, was constructed of 4-tandem EcREs inserted upstream of a thymidine kinase gene minimal promoter directing luciferase expression. […] 1 μM ligand was added at the time of transfection, and the cells were harvested for luciferase assay 40 hours later. Harvested cell extracts were split, and one part was analyzed in a luminometer for luciferase activity and the other part was analyzed for β-galactosidase activity using an orthonitrophenyl galactoside assay by standard methods. Luciferase levels were normalized to β-galactosidase values to correct for slight differences in transfection efficiency.
molecule,measurement,setting,value
EcRE probe,binding signal (fold increase with ligand),[1],7
same,binding signal (fold vs UNE constructs (average of ENU)),[2],10
same,binding signal (fold increase with ligand),[3],11
same,binding signal (fold vs UNE constructs (average of ENU)),[4],10
same,binding signal (fold increase with ligand),[5],4
same,binding signal (fold increase with ligand),[6],5
same,binding signal (fold increase with ligand),[7],2
"CCc1ccc(C(=O)NN(C(=O)c2cc(C)cc(C)c2)C(C)(C)C)cc1 [Tebufenozide, tebufenozide]",toxicity to mammals and other non-insect species,[8],very low toxicity
VP16-fused monomeric RXR (other) MDTKHFLPLDFSTQVNSSLTSPTGRGSMAAPSLHPSLGPGIGSPGQLHSPISTLSSPINGMGPPFSVISSPMGPHSMSVPTTPTLGFSTGSPQLSSPMNPVSSSEDIKPPLGLNGVLKVPAHPSGNMASFTKHICAICGDRSSGKHYGVYSCEGCKGFFKRTVRKDLTYTCRDNKDCLIDKRQRNRCQYCRYQKCLAMGMKREAVQEERQRGKDRNENEVESTSSANEDMPVERILEAELAVEPKTETYVEANMGLNPSSPNDPVTNICQAADKQLFTLVEWAKRIPHFSELPLDDQVILLRAGWNELLIASFSHRSIAVKDGILLATGLHVHRNSAHSAGVGAIFDRVLTELVSKMRDMQMDKTELGCLRAIVLFNPDSKGLSNPAEVEALREKVYASLEAYCKHKYPEQPGRFAKLLLRLPALRSIGLKCLEHLFFFKLIGDTPIDTFLMEMLEAPHQMT,E-mediated transactivation of the E4-luc luciferase reporter in 293 cells,[9],> 5 fold
"E5R: fusion protein: Drosophila EcR at amino terminus, 5 linker segments, RXR (protein) MKRRWSNNGGFMRLPEESSSEVTSSSNGLVLPSGVNMSPSSLDSHDYCDQDLWLCGNESGSFGGSNGHGLSQQQQSVITLAMHGCSSTLPAQTTIIPINGNANGNGGSTNGQYVPGATNLGALANGMLNGGFNGMQQQIQNGHGLINSTTPSTPTTPLHLQQNLGGAGGGGIGGMGILHHANGTPNGLIGVVGGGGGVGLGVGGGGVGGLGMQHTPRSDSVNSISSGRDDLSPSSSLNGYSANESCDAKKSKKGPAPRVQEELCLVCGDRASGYHYNALTCEGCKGFFRRSVTKSAVYCCKFGRACEMDMYMRRKCQECRLKKCLAVGMRPECVVPENQCAMKRREKKAQKEKDKMTTSPSSQHGGNGSLASGGGQDFVKKEILDLMTCEPPQHATIPLLPDEILAKCQARNIPSLTYNQLAVIYKLIWYQDGYEQPSEEDLRRIMSQPDENESQTDVSFRHITEITILTVQLIVEFAKGLPAFTKIPQEDQITLLKACSSEVMMLRMARRYDHSSDSIFFANNRSYTRDSYKMAGMADNIEDLLHFCRQMFSMKVDNVEYALLTAIVIFSDRPGLEKAQLVEAIQSYYIDTLRIYILNRHCGDSMSLVFYAKLLSILTELRTLGNQNAEMCFSLKLKNRKLPKFLEEIWDVHAIPPSVQSHLQITQEENERLERAERMRASVGGAITAGIDCDSASTSAAAAAAQHQPQPQPQPQPSSLTQNDSQHQTQPQLQPQLPPQLQGQLQPQLQPQLQTQLQPQIQPQPQLLPVSAPVPASVTAPGSLSAVSTSSEYMGGSAAIGPITPATTSSITAAVTASSTTSAVPMGNGVGVGVGVGGNVSMYANAQTAMALMGVALHSHQEQLIGGVAVKSEHSTTAGPTGPGPGGGSGGGSGTGPGGGSGGGSGTGPGGGSGGGSGTGPGGGSGGGSGTGPGGGSGGGSGTMDTKHFLPLDFSTQVNSSLTSPTGRGSMAAPSLHPSLGPGIGSPGQLHSPISTLSSPINGMGPPFSVISSPMGPHSMSVPTTPTLGFSTGSPQLSSPMNPVSSSEDIKPPLGLNGVLKVPAHPSGNMASFTKHICAICGDRSSGKHYGVYSCEGCKGFFKRTVRKDLTYTCRDNKDCLIDKRQRNRCQYCRYQKCLAMGMKREAVQEERQRGKDRNENEVESTSSANEDMPVERILEAELAVEPKTETYVEANMGLNPSSPNDPVTNICQAADKQLFTLVEWAKRIPHFSELPLDDQVILLRAGWNELLIASFSHRSIAVKDGILLATGLHVHRNSAHSAGVGAIFDRVLTELVSKMRDMQMDKTELGCLRAIVLFNPDSKGLSNPAEVEALREKVYASLEAYCKHKYPEQPGRFAKLLLRLPALRSIGLKCLEHLFFFKLIGDTPIDTFLMEMLEAPHQMT",relative-fold increase in response element binding (endodimer band) resulting from ligand treatment,[10],11 fold
same,Rel. Ind. = relative induction of individual receptor groups,[11]; +ligand (1 μM murA) versus −ligand,8.4 fold
same,+Lig/E4 = luciferase activity vs. reporter only with ligand,"[11]; transiently co-transfected 293 cells, 1 μM murA, relative to E4-luc reporter only",3.89
same,−Lig/E4 = luciferase activity vs. reporter only without ligand,"[11]; transiently co-transfected 293 cells, without ligand, relative to E4-luc reporter only",0.46
